Consider 84 variants from the RNAGym collection of RNA variant scans (doi:10.1093/molbev/msab373).

B1: Azoarcus group I ribozyme (parent)
chain: GUGCCUUGCGCCGGGAAACCACGCAAGGGAUGGUGUCAAAUUCGGCGAAACCUAAGCGCCCGCCCGGGCGUAUGGCAACGCCGAGCCAAGCUUCGGCGCCUGCGCCGAUGAAGGUGUAGAGACUAGACGGCACCCACCUAAGGCAAACGCUAUGGUGAAGGCAUAGUCCAGGGAGUGGCGAAAGUCACACAAACCGG

In the series the parent is B1. As to the kind of experiment: reverse-splicing fitness (ratio to wild type); higher = more active; in vitro selection; Mg2+ level not given. In outline: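 An in vitro group I ribozyme library with randomized positions was T7-transcribed and gel-purified. In triplicate, 10 pmol RNA in EPPS pH 7.5 was reacted with 50 pmoles of a 30-nt RNA substrate for 1 h at 37 °C across several added MgCl2 levels (1–48 mM), then stopped with EDTA. Products were reverse transcribed from a substrate-complementary primer, PCR-amplified and sequenced (HiSeq 4000). Fitness is a variant's read proportion after selection over that before, normalised to wild type.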
With C82A A111C A120C A145U C150U C169G U176A, the reverse-splicing fitness was 0.0127.
As to C82A A111C A120C A145U C150U C169G U176C, the reverse-splicing fitness came to 0.015.
For the variant C82A A111C A120C A145U C150U C169G U176G, the reverse-splicing fitness is 0.00815.
The result for C82A A111C A120C A145G C169G U176G reads 0.00694.
On to C82A A111C A120C A145G C169G U176A, for which the reverse-splicing fitness was 0.0212.
Then C82A A111C A120C A145G C169G U176C, with 0.0247; and C82A A111C A120G A145C C169G, with 0.00901; and C82A A111C A120G A145C C169U, with 0.00846.
The result for C82A A111C A120G A145C C169A reads 0.00659.
As to C82A A111C A120C C150A C169G U176C, the reverse-splicing fitness worked out at 0.0202.
As to C82A A111C A120C C150A C169G U176A, the reverse-splicing fitness stood at 0.0168.
The result for C82A A111C A120C C150A C169G U176G reads 0.00878; that for C82A A111C A120C C169A U176G, 0.00712.
Turning to C82A A111C A120C C169A U176C, the reverse-splicing fitness amounted to 0.0179.
Then C82A A111C A120C C169A U176A, with 0.0163.
Then C82A A111C A120C A145U C150A C169A, with 0.00876.
As for C82A A111C A120C A145U C150A C169U, the reverse-splicing fitness is 0.0124.
The result for C82A A111C A120C A145U C150A C169G reads 0.00824.
As for C82A A111C A120G A145G C150G C169G U176A, the reverse-splicing fitness turned out to be 0.00968.
The result for C82A A111C A120G A145G C150G C169G U176C reads 0.0118; that for C82A A111C A120G A145G C150G C169G U176G, 0.00603; that for C82A A111C A120C A145C C169U, 0.0116.
As for C82A A111C A120C A145G U176C, the reverse-splicing fitness is 0.0274.
Then C82A A111C A120C A145G U176G, with 0.00691.
Then C82A A111C A120C A145G U176A, with 0.0152; and C82A A111C A120G A145C C150G U176A, with 0.00683.
Then C82A A111C A120G A145C C150G U176G, with 0.00311.
On to C82A A111C A120G A145C C150G U176C, for which the reverse-splicing fitness was 0.0141.
The result for C82A A111C A120G A145G U176A reads 0.0153; that for C82A A111C A120G A145G U176G, 0.00581; that for C82A A111C A120G A145G U176C, 0.0226.
Turning to C82A A111C A120C C150U, the reverse-splicing fitness stood at 0.0169.
For C82A A111C A120C C150G, the reverse-splicing fitness stood at 0.0074.
Then C82A A111C A120C C150A, with 0.0114; and C82A A111C A120G A145G C169U U176A, with 0.0159; and C82A A111C A120G A145G C169U U176C, with 0.0157.
The result for C82A A111C A120G A145G C169U U176G reads 0.00473; that for C82A A111C A120G A145C C150U U176A, 0.00894; that for C82A A111C A120G A145C C150U U176G, 0.00502.
The result for C82A A111C A120G A145C C150U U176C reads 0.0119.
For the variant C82A A111C A120G A145U C150A, the reverse-splicing fitness is 0.00771.
Then C82A A111C A120C C150A C169U, with 0.0133.
Consider C82A A111C A120C C150A C169A, for which the reverse-splicing fitness worked out at 0.0111.
The result for C82A A111C A120C C150A C169G reads 0.00949.
On to C82A A111C A120C A145G C150G C169A, for which the reverse-splicing fitness was found to be 0.00894.
Consider C82A A111C A120C A145G C150G C169U, for which the reverse-splicing fitness was 0.00903.
The result for C82A A111C A120C A145G C150G C169G reads 0.00793; that for C82A A111C A120C A145G C150G C169G U176A, 0.0109.
The result for C82A A111C A120C A145G C150G C169G U176G reads 0.00642; that for C82A A111C A120C A145G C150G C169G U176C, 0.0131; that for C82A A111C A120C A145U, 0.0241.
The result for C82A A111C A120C A145G reads 0.0258.
For the variant C82A A111C A120C C150U C169G U176G, the reverse-splicing fitness was determined as 0.00721.
The result for C82A A111C A120C C150U C169G U176C reads 0.016; that for C82A A111C A120C C150U C169G U176A, 0.0139.
Then C82A A111C A120C A145U C150U U176A, with 0.0128.
The result for C82A A111C A120C A145U C150U U176C reads 0.0187; that for C82A A111C A120C A145U C150U U176G, 0.00695; that for C82A A111C A120C A145G C150A U176G, 0.00865.
On to C82A A111C A120C A145G C150A U176A, for which the reverse-splicing fitness came out at 0.00956.
Then C82A A111C A120C A145G C150A U176C, with 0.0232; and C82A A111C A120C A145U C150U C169U, with 0.0124; and C82A A111C A120C A145U C150U C169A, with 0.00985.
The result for C82A A111C A120C A145U C150U C169G reads 0.00764; that for C82A A111C A120C A145U C169G, 0.0102; that for C82A A111C A120C A145U C169U, 0.0133.
Then C82A A111C A120C A145U C169A, with 0.00864; and C82A A111C A120C C150G C169G U176G, with 0.00646.
As for C82A A111C A120C C150G C169G U176C, the reverse-splicing fitness came to 0.00606.
Then C82A A111C A120C C150G C169G U176A, with 0.00786.
As for C82A A111C A120C A145U C150U C169A U176G, the reverse-splicing fitness amounted to 0.00742.
C82A A111C A120C A145U C150U C169A U176A: the reverse-splicing fitness is 0.0153.
The result for C82A A111C A120C A145U C150U C169A U176C reads 0.0129; that for C82A A111C A120C A145G C150U C169U U176A, 0.0121; that for C82A A111C A120C A145G C150U C169U U176C, 0.0128.
Then C82A A111C A120C A145G C150U C169U U176G, with 0.00717.
The result for C82A A111C A120G A145C C150U C169G U176C reads 0.0133; that for C82A A111C A120G A145C C150U C169G U176G, 0.00558.
Turning to C82A A111C A120G A145C C150U C169G U176A, the reverse-splicing fitness was found to be 0.0217.
Then C82A A111C A120G A145C C150A C169G U176G, with 0.00557; and C82A A111C A120G A145C C150A C169G U176A, with 0.0253.
The result for C82A A111C A120G A145C C150A C169G U176C reads 0.0145; that for C82A A111C A120C C150G U176C, 0.00863; that for C82A A111C A120C C150G U176G, 0.00353.
